B1: B-box zinc finger protein 22 (Arabidopsis thaliana (Mouse-ear cress)), Q9SYM2 (parent)
chain: MKIQCNVCEAAEATVLCCADEAALCWACDEKIHAANKLAGKHQRVPLSASASSIPKCDICQEASGFFFCLQDRALLCRKCDVAIHTVNPHVSAHQRFLLTGIKVGLESIDTGPSTKSSPTNDDKTMETKPFVQSIPEPQKMAFDHHHHQQQQEQQEGVIPGTKVNDQTSTKLPLVSSGSTTGSIPQWQIEEIFGLTDFDQSYEYMENNGSSKADTSRRGDSDSSSMMRSAEEDGEDNNNCLGGETSWAVPQIQSPPTASGLNWPKHFHHHSVFVPDITSSTPYTGSSPNQRVGKRRRRF
partner: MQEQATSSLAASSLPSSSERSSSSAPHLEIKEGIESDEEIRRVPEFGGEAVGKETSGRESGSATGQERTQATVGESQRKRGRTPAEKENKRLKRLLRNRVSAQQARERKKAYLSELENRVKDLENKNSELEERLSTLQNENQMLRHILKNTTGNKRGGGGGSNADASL

Variants of: B1
Conditions: with hy5_arath HY5, O24646

effect of a mutation on the interaction | Variant
disrupting interaction | D72A
disrupting interaction | D81A

Reference: IntAct's records for PubMed 18796637
